Data: article PMC11917138, “A naturally occurring standalone TrpB enzyme provides insights into allosteric communication within tryptophan synthase” (Protein Science : A Publication of the Protein Society, 2025)

Tests used:
[1] = target: plTrpB, tryptophan synthase β subunit (TrpB) from Pelodictyon luteolum (Pelodictyon luteolum); experiment: SEC; analytical SEC, Superdex200 increase 10/300 GL; plTrpA 75 μM, plTrpB or plTrpB-con 50 μM, alone or mixed; 50 mM potassium phosphate pH 7.5, 300 mM KCl, 75 mM L-serine, 25°C
[2] = target: plTrpB, tryptophan synthase β subunit (TrpB) from Pelodictyon luteolum (Pelodictyon luteolum); experiment: activity titration; apparent Kd; varying plTrpA added to 2 μM plTrpB or plTrpB-con, TrpB reaction rate read at 290 nm; 30°C, 50 mM potassium phosphate pH 7.5, 180 mM KCl, 40 μM PLP, 75 mM L-serine, 1 mM indole; hyperbolic fit; duplicates
[3] = target: plTrpB‐con, plTrpB with the six LBCA-Res6 residues replaced by consensus residues (Pelodictyon luteolum); experiment: as above
[4] = target: plTrpB, tryptophan synthase β subunit (TrpB) from Pelodictyon luteolum (Pelodictyon luteolum)
[5] = target: plTrpB‐con, plTrpB with the six LBCA-Res6 residues replaced by consensus residues (Pelodictyon luteolum)
[6] = target: plTrpB, tryptophan synthase β subunit (TrpB) from Pelodictyon luteolum (Pelodictyon luteolum); remark: listed apart in the source
[7] = target: plTrpB‐con, plTrpB with the six LBCA-Res6 residues replaced by consensus residues (Pelodictyon luteolum); remark: listed apart in the source
[8] = substrate: c1ccc2[nH]ccc2c1; experiment: purified protein; type: biochemical, Pelodictyon luteolum; settings: saturating L-serine, 50 mM potassium phosphate pH 7.5, 180 mM KCl, 40 μM PLP, 30°C
[9] = 1.5-fold molar excess of plTrpA

“plTrpB, tryptophan synthase β subunit (TrpB) from Pelodictyon luteolum (from UniProt A0A1G7SST0 1-406) (enzyme)” was tested, and the stoichiometry N [1] was 2.

“plTrpA, tryptophan synthase α subunit (TrpA) from Pelodictyon luteolum (from UniProt A0A1G7SSP5 1-275) (enzyme)” gave a Kd [2] of 8.5 µM, a Kd [3] of 9.9 µM and a fold activation of k cat of plTrpB by plTrpA [4] of 2.7 fold. For the same molecule, the fold activation of k cat/K M ^Ind of plTrpB by plTrpA [4] was 1.6 fold, the fold activation of k cat/K M ^Ser of plTrpB by plTrpA [4] was 9.8 fold and the fold activation of k cat of plTrpB-con by plTrpA [5] was 23 fold. The fold activation of k cat/K M ^Ind of plTrpB-con by plTrpA [5] was 3.6 fold, the fold activation of k cat/K M ^Ser of plTrpB-con by plTrpA [5] was > 10000 fold and the k cat of the TrpB reaction of plTrpB with a 1.5-fold molar excess of plTrpA, 30°C [6] was 0.93 s⁻¹. The k cat of the TrpB reaction of plTrpB-con with a 1.5-fold molar excess of plTrpA, 30°C [7] was 0.21 s⁻¹.

B1: plTrpB (Pelodictyon luteolum DSM 273) (protein)
chain: MSTTAYSAPDSAGKFGAFGGRFTPETLMQNAAGLEAEYLKAKSDPEFQRTLEGLLGDYVGRPTPLYHAEGLSGMLGGAEVWLKREDLCHTGAHKINNALGQVLLARRMGKRRVIAETGAGQHGVATATVCALFNLQCVVYMGEEDIRRQAPNVARMKLLGAEVRPVSSGSRTLKDATSEAIRDWMNNPEETFYIIGSVVGMHPYPMIVRDFQAVIGRETRRQILDKAGRLPDVITACIGGGSNAVGMFYDFLPDAGSIELIGVEAAGEGLDRRHAASLTMGSPGVLHGAMTMLLQNEDGQIQEAHSISAGLDYPGVGPEHCHLQELGLVKYTSVTDADALSALRTLAETEGIICALESAHAVRYAITRAPEMAKDKIIIVNLSGRGDKDMGTIMEELNL
notes: full-length, C-terminal His6-tag kept, codon-optimized gene in pET21a, E. coli BL21 Gold (DE3); beta-beta dimer
B1 gave a Km ([8]; no plTrpA) of 39 ± 7 µM, a kcat ([8]; no plTrpA) of 0.35 ± 0.02 s⁻¹ and a kcat/Km ([8]; no plTrpA) of 8970 ± 1720 M⁻¹ s⁻¹.

B2: plTrpA:plTrpB (Pelodictyon luteolum DSM 273) (protein)
chain: B1 chain
notes: both full-length with C-terminal His6-tag, E. coli BL21 Gold (DE3); alpha-beta-beta-alpha complex, partly formed; with Tryptophan synthase alpha chain
B2 showed a Km [8, 9] of 65 ± 7 µM, a kcat [8, 9] of 0.93 ± 0.21 s⁻¹ and a kcat/Km [8, 9] of 14300 ± 3510 M⁻¹ s⁻¹.
